Assay results from publication PMC9738585, “Unveiling the Metal-Dependent Aggregation Properties of the C-terminal Region of Amyloidogenic Intrinsically Disordered Protein Isoforms DPF3b and DPF3a” (International Journal of Molecular Sciences, 2022).

B1: C-terminal region of DPF3b (C-TERb) (domain or fragment, human, UniProt Q92784-1 200-378, looked up)
chain: CDICGKRYKNRPGLSYHYAHTHLASEEGDEAQDQETRSPPNHRNENHRPQKGPDGTVIPNNYCDFCLGGSNMNKKSGRPEELVSCADCGRSGHPTCLQFTLNMTEAVKTYKWQCIECKSCILCGTSENDDQLLFCDDCDRGYHMYCLNPPVAEPPEGSWSCHLCWELLKEKASAFGCQA
notes: Double-PHD fingers 3 isoform DPF3b (378 amino acids), human, Uniprot Q92784-1, residues 200-378 (C2H2, PHD-1 and PHD-2 zinc fingers); also called DPF3b C-terminus; source: E. coli BL21 Rosetta (DE3), purified (GSTrap FF, on-column TEV cleavage); not shown: GST, N-terminal, cleaved
B2: C-terminal region of DPF3a (C-TERa) (domain or fragment, human, UniProt Q92784-2 200-357, looked up)
chain: CDICGKRYKNRPGLSYHYAHTHLASEEGDEAQDQETRSPPNHRNENHRPQKGPDGTVIPNNYCDFCLGGSNMNKKSGRPEELVSCADCGRSAHLGGEGRKEKEAAAAARTTEDLFGSTSESDTSTFHGFDEDDLEEPRSCRGRRSGRGSPTADKKGSC
notes: Double-PHD fingers 3 isoform DPF3a (357 amino acids), human, Uniprot Q92784-2, residues 200-357 (C2H2, truncated PHD-1/2 and disordered C-terminal domain); also called DPF3a C-terminus; source: E. coli BL21 Rosetta (DE3), purified (GSTrap FF, on-column TEV cleavage); not shown: GST, N-terminal, cleaved

Target: the molecule itself
Experiment: thioflavin T fluorescence; purified C-TER (~10 µM) incubated in TBS (50 mM Tris-HCl pH 8.0, 150 mM NaCl) at ~20 °C for 96 to 144 h; 10 µM ThT, excitation 440 nm, emission 485 nm; self-assembly into amyloid fibrils; also at ~5 µM with 100 µM Cu2+, Mg2+, Ni2+ or Zn2+

| Protein | binding result |
| --- | --- |
| B1 | binds |
| B2 | binds |
